Assay results as given in EP2338512A1 (MedImmune, LLC, dated 2011).

Experiments:
[1] = molecular target: T1, RSV F glycoprotein (NUF4) (respiratory syncytial virus (strain not …)); assay: ITC, NUF4 titrated into antibody
Bac-F = assay: BIAcore, monoclonal antibody vs Bac-F (1:1)
[2] = molecular target: T1, RSV F glycoprotein (NUF4); assay: BIAcore, monoclonal antibody vs NUF4 (2:1)
[3] = molecular target: T1, RSV F glycoprotein (NUF4); assay: BIAcore, monoclonal antibody vs NUF4 (1:1)

B1: A4B4 (monoclonal antibody) (antibody, V domains shown)
VH: QVTLRESGPALVKPTQTLTLTCTFSGFSLSTAGMSVGWIRQPPGKALEWLADIWWDDKKHYNPSLKDRLTISKDTSKNQVVLKVTNMDPADTATYYCARDMIFNFYFDVWGQGTTVTVSS
VL: DIQMTQSPSTLSASVGDRVTITCSASSRVGYMHWYQQKPGKAPKLLIYDTFFLDSGVPSRFSGSGSGTEFTLTISSLQPDDFATYYCFQGSGYPFTFGGGTKLEIK
ΔHb [1]: 22.2 kcal/mol | number in parentheses after KD (ratio to SYNAGIS, which has 1) (Bac-F): 195 fold | number in parentheses after KD (ratio to SYNAGIS, which has 1) [2]: 156 fold | number in parentheses after KD (ratio to SYNAGIS, which has 1) [3]: 15 fold
